For the assay, the target named is SpyCatcher-tagged ferritin. As to the kind of experiment: SDS-PAGE of the covalent conjugate; purified SC-FN and rePO-ST mixed in vitro overnight (12 hours) at 4 °C in molar ratios 1:8 to 1:28; isopeptide bond between SpyTag and SpyCatcher; new band on SDS-PAGE.

In the case of “SpyTag-tagged rePO (recombinant PcrV-OprI with SpyTag at the C-terminus) (from UniProt G3XD49 28-294; P11221 25-83)”, the proportion of conjugated ferritin stood at 70%.
